# Experimental data from paper PMC7092541, “Characterization of a novel family VIII esterase EstM2 from soil metagenome capable of hydrolyzing estrogenic phthalates” (Microbial Cell Factories, 2020).
# Columns and labels:
# Test in all cases: purified protein
# COC(=O)c1ccccc1C(=O)O = details: 50 mM Tris-HCl pH 8.0, 37 °C, substrate 0.1-10 mM (unit defined at 25 °C)
# COC(=O)c1ccccc1C(=O)OC = details: 50 mM Tris-HCl pH 8.0, 37 °C, substrate 0.1-10 mM (unit defined at 25 °C)
# CCCCOC(=O)c1ccccc1C(=O)O = details: 50 mM Tris-HCl pH 8.0, 37 °C, substrate 0.1-10 mM (unit defined at 25 °C)
# [1] = test system: O=C(O)c1ccccc1C(=O)OCc1ccccc1; details: 50 mM Tris-HCl pH 8.0, 37 °C, substrate 0.1-10 mM (unit defined at 25 °C)
# [2] = test system: CCCCCC(=O)Oc1ccc([N+](=O)[O-])cc1; details: 50 mM Tris-HCl pH 8.0, 1% acetonitrile
# [3] = test system: CCCCOC(=O)c1ccccc1C(=O)OCc1ccccc1; details: 50 mM Tris-HCl pH 8.0, 37 °C, substrate 0.1-10 mM (unit defined at 25 °C)
# [4] = test system: CCCCOC(=O)c1ccccc1C(=O)OCCCC; details: 50 mM Tris-HCl pH 8.0, 37 °C, substrate 0.1-10 mM (unit defined at 25 °C)
# [5] = test system: O=C(Oc1ccccc1)c1ccccc1C(=O)Oc1ccccc1; details: 50 mM Tris-HCl pH 8.0, 37 °C, substrate 0.1-10 mM (unit defined at 25 °C)
# CCOC(=O)c1ccccc1C(=O)O = details: 50 mM Tris-HCl pH 8.0, 37 °C, substrate 0.1-10 mM (unit defined at 25 °C)
# [6] = test system: CC(=O)Oc1ccc([N+](=O)[O-])cc1; details: 50 mM Tris-HCl pH 8.0, 1% acetonitrile
# [7] = test system: O=C(O)c1ccccc1C(=O)Oc1ccccc1; details: 50 mM Tris-HCl pH 8.0, 37 °C, substrate 0.1-10 mM (unit defined at 25 °C)
# [8] = test system: CCCC(=O)Oc1ccc([N+](=O)[O-])cc1; details: 50 mM Tris-HCl pH 8.0, 1% acetonitrile
substance,measurement,setting,value
EstM2 (uncultured bacterium),Km,COC(=O)c1ccccc1C(=O)O,1950 ± 150 µM
same,Vmax,COC(=O)c1ccccc1C(=O)O,41.3 µmol/min/mg
same,kcat/Km,COC(=O)c1ccccc1C(=O)O,15200 ± 1200 M⁻¹ s⁻¹
same,Km,COC(=O)c1ccccc1C(=O)OC,1020 ± 80 µM
same,Vmax,COC(=O)c1ccccc1C(=O)OC,42.1 µmol/min/mg
same,kcat/Km,COC(=O)c1ccccc1C(=O)OC,29600 ± 2300 M⁻¹ s⁻¹
same,Km,CCCCOC(=O)c1ccccc1C(=O)O,1260 ± 80 µM
same,Vmax,CCCCOC(=O)c1ccccc1C(=O)O,56.7 µmol/min/mg
same,kcat/Km,CCCCOC(=O)c1ccccc1C(=O)O,32200 ± 2200 M⁻¹ s⁻¹
same,Km,[1],1120 ± 80 µM
same,Vmax,[1],43.8 µmol/min/mg
same,kcat/Km,[1],28000 ± 2000 M⁻¹ s⁻¹
same,Km,[2],280 ± 20 µM
same,Vmax,[2],71.4 µmol/min/mg
same,kcat/Km,[2],183000 ± 10700 M⁻¹ s⁻¹
same,Km,[3],640 ± 40 µM
same,Vmax,[3],57.6 µmol/min/mg
same,kcat/Km,[3],64500 ± 3800 M⁻¹ s⁻¹
same,Km,[4],620 ± 40 µM
same,Vmax,[4],72.9 µmol/min/mg
same,kcat/Km,[4],84200 ± 5100 M⁻¹ s⁻¹
same,Vmax,[5],45.1 µmol/min/mg
same,kcat/Km,[5],54800 ± 3600 M⁻¹ s⁻¹
same,Km,CCOC(=O)c1ccccc1C(=O)O,1730 ± 130 µM
same,Vmax,CCOC(=O)c1ccccc1C(=O)O,54.2 µmol/min/mg
same,kcat/Km,CCOC(=O)c1ccccc1C(=O)O,22500 ± 1600 M⁻¹ s⁻¹
same,Km,[6],410 ± 10 µM
same,Vmax,[6],748 µmol/min/mg
same,kcat/Km,[6],1.29e+06 ± 32500 M⁻¹ s⁻¹
same,Km,[7],1060 ± 80 µM
same,Vmax,[7],37.6 µmol/min/mg
same,kcat/Km,[7],25400 ± 1900 M⁻¹ s⁻¹
same,Km,[8],440 ± 10 µM
same,Vmax,[8],905 µmol/min/mg
same,kcat/Km,[8],1.46e+06 ± 34200 M⁻¹ s⁻¹
